Test results as given in the nanobody polyreactivity screen of Harvey et al. (2022).

Test: yeast display, Sf9 membrane polyspecificity reagent, FACS + sequencing; frameworks hold sequencing errors
In short: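 Nanobodies came from a synthetic yeast display library in Saccharomyces cerevisiae BJ5465, induced with galactose for 36–48 hours and stained for 1 hour at 4 °C with 10% biotinylated, detergent-solubilized Sf9 membrane reagent. Cells were enriched on streptavidin microbeads and then FACS-sorted, with low and high (top ~1%) gates set on anti-HA fluorescence for expression and streptavidin fluorescence for reagent binding. Each polyreactivity label reflects the gate a clone came from. Genes were amplified by colony PCR, sequenced by MiSeq 2 × 250 and filtered by CDR length.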

Sequence | polyreactivity (PSR sort gate)
QVQLVESGGGLVQAGGSLRLSCAASGRTFLVYAMGWYRQAPGKERELVATIRASTGSTYADSVKGRFTISRDNAKNTVYLQMNSLKPEDTAVYYCNAVHYFLYGYYSWGQGTQVTVSS | high polyreactivity
QVQLVESGGGLVQAGGSLRLSCAASGSIFGDYARGWYRQAPGKERELVAAISRSGGSTSYADSVKGRFTISRDNAKNTVYLQMNSLKPEDSAVYYCAAYWQRFGYDYWGQGTQVSVSS | low polyreactivity
QVQLVESGGGLVQAGGSLRLSCAASGLTFFGYAMGWYRQAPGKERELVAPISSSGTRTYYADSVKGRFTISRDNAKNTVYLQMNSLKPEDTAVYYCATVRYQEYDYWGQGTQVTVSS | high polyreactivity
QVQLVESGGGLVQAGGSLRLICAASGTTFPRYAMGWYRKAPGKERELVAAITRSGANTHYADSVKGRFTIPRDNAKNTVYLQMTSLKPEDTAVYYCAARIYWGYGTRYYYWGQGTQVTVSS | high polyreactivity
QVLLQESGGALVQAGGSLRLSCAASGTISTDIRMGWYRLAPGKEPEFVASIDGCSTTYYADSVKVRFTISRDNEKNTVYLQMNSLKPEDTAMYYCAAREATEFYLYYWGQGTQVTVSS | low polyreactivity
QVQLVESGGGLVQAGGSLRLSCAASGIIFATNGMGWYRQAPGKEREFVASSTNGGSTNYADSVKGRFTISRDNAKNTVYLQMNSLKPEDTAVYYCAAAASDDYDYPTEYEYWGQGTQVTVSS | high polyreactivity
QVQLVESGGGLFQAGGSLRLSCAASGSTFGFNAMGWYRQAPGKEREFVAAINTSGGNTYYADSVKGRFTISRDNAKNTVYLQMNSLKPEDTAVYYCNAREGHLYGYPYGYWGQGTQVTVSS | low polyreactivity
QVQLVESGGGLVRAGGSLRLSCAASGRIFHGNAMGWYRQAPGKERELVAAITWGGTRTYYADSVKGRFTISRDNAKNTVYLQMNSLKPEDTAVYYCAKAGTGFYNSWWEDYWGQGTQVTVSS | low polyreactivity
QVQLVASGGGLVQAGGSLRLSCAASGFIFWYYAMGWYRQAPGKERELVATITSGGSTTYADSVKGRFTISRDNAKNTVYLQMYSLKPEDTAVYYCAAKGISRYDWGQGTQVTVSS | low polyreactivity
QVQLVESGGGLVQAGGSLRLSCAGSGRSFVYNAMGWYRQAPGQDRELVAAITSGGRTYYADSVKGRFTISRDNAKNTVYLQINSLKPEDTAVYDCAKRFWFNTYAAHPAGFDYWGQGTQVTVSS | low polyreactivity
QVQLVESGGGFVQAGGSLRLSCAASGSNLGKNTMGWYRQAPGKERELVATISRSGGSTYYADSVKGRFTISRDNAKNTVYLQMNSLKPEDTAVYYCAARAIRSGYYRYDYWGQGTKVTVSS | high polyreactivity
QVQLVESGGGLVQAGGSLRLSCAASGFTLGFNAMGWYRQAPGKERELVAAITIGGTTYYADSVKGRFTISRDNAKNTVYLQMNSLKPEDTAVYYCAAARFLWFYVYTTRVQRYGYWGQGTQVTVSS | low polyreactivity
QVQLVESGGGLVQAGGSLRLSCAASGGTIYDNTMGWYRQAPGKERELVAAISRDGSTNYADSVKGRFTISRDNAKNTVYLQMNSLKPEDTAVYYCNKDPVSEYRSPGFPVTYDYWGQGTQVTVSS | low polyreactivity
QVQRVESGGRLVQAGGILRVSCAASGGTFGINAMGWYRQSPGKEREFVAAITRGDGSTYYADSVKGRFTISRDNAKNTVFIQMKSLKPEDTAVYYCAKRYFVYYSMDYWGQGTQVTVSS | low polyreactivity
QEQLQETGGGLVRAGGSLRLICAASRSNSVEAGMGRSRQAPGEERELVATINDGSITNYAVSVKGRFTTSRDNAKYTVYLLMNSLKPEDTAVYYCAALTRNYQSHQFWGQGTQVTVSR | high polyreactivity
QVQLEESGGGLVQAGGSLRISCAASGKIFSYNAMGWYRHAPGKERELVAAISRSGGSTYYADSVKGRFTISRDNAKNTVYLQMNSLKPEDTAVYYCAADWRGRKYDYWGQVTQVTVSS | high polyreactivity
QVQLVESGGGLVQAGGSLRLSCAASGLIFYYYAMGWYRQAPGKERELVAAITRGGRTYYADSVKGRFTISRDNAKNTVYLQMNSLKPEDTAVYYCAAGWYQGFDYWGQGTQVTVSS | high polyreactivity
